Source: patent US11572572B2, “A138T mutation-containing plant EPSPS mutant, and encoding gene and application thereof” (GEVOTO LLC, priority 2017, dated 2023)
Positions count from the first letter of the chain named.

B1: R5: Oryza sativa EPSPS mutant containing G111(96)A, P116(101)S, and A155(138)T (SEQ ID NO: 9), encoding gene SEQ ID NO: 19 (protein)
chain: MASNAAAAAAKAEEIVLQPIREISGAVQLPGSKSLSNRILLLSALSEGTTVVDNLLNSEDVHYMLEALKALGLSVEADKVAKRAVVVGCGGKFPVEKDAKEEVQLFLGNAATAMRSLTAAVTAAGGNATYVLDGVPRMRERPIGDLVVGLKQLGTDVDCFLGTECPPVRVKGIGGLPGGKVKLSGSISSQYLSALLMAAPLALGDVEIEIIDKLISIPYVEMTLRLMERFGVKAEHSDSWDRFYIKGGQKYKSPGNAYVEGDASSASYFLAGAAITGGTVTVQGCGTTSLQGDVKFAEVLEMMGAKVTWTDTSVTVTGPPREPYGKKHLKAVDVNMNKMPDVAMTLAVVALFADGPTAIRDVASWRVKETERMVAIRTELTKLGASVEEGPDYCIITPPEKLNITAIDTYDDHRMAMAFSLAACADVPVTIRDPGCTRKTFPNYFDVLSTFVRN
modifications: Oryza sativa EPSPS mutant with mutations G111(96)A, P116(101)S, and A155(138)T
B2: R4: Oryza sativa EPSPS mutant containing G111(96)A and P116(101)S (SEQ ID NO: 8), encoding gene SEQ ID NO: 18 (protein)
chain: B1 chain with T155A
modifications: Oryza sativa EPSPS mutant with mutations G111(96)A and P116(101)S

Tested on: transgenic rice seedlings
Assay: Glyphosate resistance of EPSPS mutants in transgenic rice sprayed with glyphosate (Example 8)
Type: in vivo, rice (Nipponbare)
Description: The glyphosate resistance of the EPSPS mutants of the above examples in transgenic rice was detected by the following method.
Plasmids of monoclonal resistant strain comprising pADV5-EPSPS of Examples 1-4 (containing the EPSPS mutant genes) were extracted in accordance with a conventional method. They were subjected to double enzymatic digestion with Pacl and BstEII to recover small fragments, and then the small fragments were ligated, using T4 DNA ligase, to a pGVP1 vector subjected to double enzymatic digestion in the same manner, to obtain a pGVP1-EPSPS vector having a structure as shown in FIG. 8.
The pGVP1-EPSPS vector was transformed into EHA105 (Agrobacterium tumefaciens) competent cells, and single clones were picked out for colony PCR detection to obtain positive strains. Then, the positive strains were inoculated into and propagated in 1 mL of a YEP medium containing 50 μg·mL^−1 kanamycin and 50 μg·mL^−1 rifampicin, and stored at −80° C. or used in subsequent experiments.
400 ul of a strain containing the target gene vector stored at −80° C. was added to a culture dish with a solid medium containing YEP+50 μg/mL rifampicin+50 μg/mL kanamycin and cultured in the dark at 28° C. for 24 hours, and then the bacterium was added to an infection medium and adjusted to OD=0.2 as an infection solution.
Disinfection and Pre-culture: seeds of mature rice (Nipponbare) were manually dehulled. Full seeds with no bacterial plaques were selected and disinfected in accordance with the following steps: the seeds were placed in a 50 ml sterile centrifuge tube and disinfected with the added 70% ethanol in water for 30 seconds, ethanol solution was poured out, and the seeds were washed once with sterile water; 10 to 20 ml of 2.6% sodium hypochlorite solution was added to soak and disinfect the seeds for 20 minutes. The sodium hypochlorite solution was poured out, and the seeds were soaked and washed with sterile water for 6 or 7 times, for 3 minutes each time.
Induction and Subculture: the seeds were placed on and blotted with sterile filter paper, and the mature embryos were placed in an induction medium, with 12 embryos per dish. After the operation was completed, the culture dishes were sealed with parafilm and underwent culturing in the dark at 30° C. for 21 to 28 days. Callus tissue was transferred to a fresh medium and continued to be cultured for about 7 to 14 days. Spherical callus tissue with a dimension of 1 to 2 mm was taken as an infection receptor.
The callus tissue was placed into a centrifuge tube or culture cup, infected in the prepared Agrobacterium suspension added thereto for 10 minutes, and shaken several times during the period; the bacterial solution was poured out, the callus tissue was taken out and placed on sterile filter paper for absorbing the bacterial solution from its surface (for about 30 minutes); the callus tissue was placed on sterile filter paper in culture dishes and cultured in the dark at 25° C. for 2 or 3 days.
Recovery Culture: the co-cultured callus tissue was inoculated on a recovery medium and cultured in the dark at 30° C. for 5 to 7 days.
Primary Screening: the callus was transferred to screening medium 1 (51) and cultured in the dark at 30° C. for 14 days.
Secondary Screening: the callus was then transferred to screening medium 2 (S2) and cultured in the dark at 30° C. for 14 days.
Primary Differentiation: the screened resistant callus tissue was transferred to a differentiation medium and cultured for about 21 days at 30° C. under exposure to light for 19 hours.
Secondary Differentiation: new young shoots were selected and moved to a fresh differentiation medium and continued to be cultured for about 21 days.
When the new seedlings grew to about 2 cm, they were moved to a rooting medium and cultured for 3 to 4 weeks at 30° C. under exposure to light (for 16/8 h). […]

[1] = 1X dose glyphosate (1,060 g/ha), day 10 after spraying
[2] = 2X dose glyphosate (2,120 g/ha) on survivors of 1X, after another 10 days
[3] = 5X dose glyphosate (5,300 g/ha) on survivors of 2X, after additional 10 days
[4] = 20X dose glyphosate (21,200 g/ha) on survivors of 5X, after further 10 days

| Molecule | % ++&+++ (percentage of moderately and highly glyphosate resistant plants in total plants observed) [1] [%] | plant number with resistance + (low glyphosate resistant) [1] | plant number with resistance ++ (moderately glyphosate resistant) [1] | plant number with resistance +++ (highly glyphosate resistant) [1] | % ++&+++ (percentage of moderately and highly glyphosate resistant plants in total plants observed) [2] [%] | plant number with resistance + (low glyphosate resistant) [2] | plant number with resistance ++ (moderately glyphosate resistant) [2] | plant number with resistance +++ (highly glyphosate resistant) [2] | plant number with resistance − (non-glyphosate resistant, withered or dead) [2] | % ++&+++ (percentage of moderately and highly glyphosate resistant plants in total plants observed) [3] [%] | plant number with resistance + (low glyphosate resistant) [3] | plant number with resistance ++ (moderately glyphosate resistant) [3] | plant number with resistance +++ (highly glyphosate resistant) [3] | plant number with resistance − (non-glyphosate resistant, withered or dead) [3] | plant number with resistance + (low glyphosate resistant) [4] | plant number with resistance ++ (moderately glyphosate resistant) [4] | plant number with resistance +++ (highly glyphosate resistant) [4] | plant number with resistance − (non-glyphosate resistant, withered or dead) [4] | level of glyphosate resistance of transformed rice seedlings compared with the mutant lacking the A138T mutation (R4 for R5, T1 for T2) (in words) (each of 1×, 2×, 5×, and 20× glyphosate doses) | % ++&+++ (percentage of moderately and highly glyphosate resistant plants in total plants observed) [4] [%] |
| --- | --- | --- | --- | --- | --- | --- | --- | --- | --- | --- | --- | --- | --- | --- | --- | --- | --- | --- | --- | --- |
| B1 | 92.0 | 0 | 0 | 23 | 84.0 | 0 | 1 | 20 | 4 | 76.0 | 2 | 2 | 17 | 4 | 1 | 6 | 13 | 5 | higher levels of glyphosate resistance |  |
| B2 | 88.5 | 0 | 0 | 23 | 80.8 | 2 | 1 | 20 | 3 | 69.2 | 3 | 1 | 17 | 5 | 3 | 10 | 3 | 10 |  | 50.0 |
